Test system: T1, VPF-FRRG(SEQ ID NO: 1)-DOX self-assembled nanoparticles (LT-NPs)
T1 sequence: FRRG

For cathepsin B (Cat-B) protease, the “cleavage of LT-NPs after enzymatic reaction with cathepsin B (RP-HPLC at 0, 9 and 24 h; fluorescence spectrophotometry)” value was “the self-assembled nanoparticles (LT-NPs) were cleaved by cathepsin B to release doxorubicin and the photosensitizer” and the “morphology by transmission electron microscopy after 24 h reaction with cathepsin B (50 ug/mL)” value was “the self-assembled nanoparticles (LT-NPs) were degraded by cathepsin B present in cancer cells and existed in an activated state”.

From US20220370611
